Data reported in patent US20020045591A1, “Methods and therapeutic compositions for treating cancer” (priority 1998, published 2002).

Legend:
[1] = tested on: β-catenin-mediated transactivation; assay: TOPFLASH luciferase transactivation in SW480 cells (Example 1); type: cell-based, human; conditions: SW480 cells transfected with TOPFLASH and N-cadherin derivative, FIG. 6A
Experimental: (§1) Cell culture and transfections: CHO and SW480 human colon carcinoma cells were cultured in Dulbecco's modified Eagle's medium containing 10% fetal calf serum in an 8% CO2 incubator at 37° C. Transfections were performed using Lipofectamine (Gibco, BRL, USA) according to the manufacturer's instructions. Stably transfected CHO clones were generated by co-transfection with a plasmid encoding the puromycin resistance gene. Two days after transfection, cells were replated in the presence of 10 μg/ml puromycin (Sigma, Holon, Israel). Stable clones were isolated 2 weeks later and tested for the expression of the transgene by Western blot analysis.
(§2) Transactivation assays: CHO cells were transfected with TOPFLASH or FOPFLASH vectors (van de Wetering et al., 1997, ibid) and with pCDNA3 coding for β-galactosidase to normalize for transfection efficiency. The transfection mixture also contained either β-catenin, LEF-1 or cadherin derivatives in different combinations, as indicated. SW480 cells were transfected with TOPFLASH and cadherin derivatives. […] The reactions were stopped with 1 M Na2CO3 and the absorbance at 420 nm was determined. […] The luciferase reaction was monitored by a TD-20e luminometer (Turner, USA) and normalized for the β-galactosidase activity. […]

[2] = tested on: β-catenin-mediated transactivation; assay: TOPFLASH/FOPFLASH luciferase transactivation in CHO cells; type: cell-based; conditions: TOPFLASH, FIG. 5A lanes 7-9
Experimental: as §1, §2

B1: N-cadherin tail: Cytoplasmic domain of chicken N-cadherin tagged with a Flag epitope (protein)
chain: MKRRDKERQAKQLLIDPEDDVRDNILKYDEEGGGEEDQDYDLSQLQQPDTVEPDAIKPVGIRRLDERPIHAEPQYPVRSAAPHPGDIGDFINEGLKAADNDPTAPPYDSLLVFDYEGSGSTAGSLSSLNSSSSGGEQDYDYLNDWGPRFKKLADMYGGGDD
modifications: left off: small tags and cut ends
[1]
  inhibition of TOPFLASH reporter (luciferase) activity: more than 85%
[2]
  luciferase activity (LEF-1 transactivation) after transfection with LEF-1 and cadherin derivative: no specific transactivation was detected
